Patent US20250296960A1, “PEPTIDE COMPOSITIONS AND METHODS OF USE THEREOF” (priority 2022, published 2025)
Numbered stars: 1 amine (or outer) side, 2 acyl side, 3 side chain; on linkers, the order of the positions; unused ones are H or OH. Square brackets hold non-standard residues; d marks the D form. Side chains are listed from the residue outwards. Ends that are not written are not given here. Peptide text beside a SMILES is read from it. * marks the point of attachment. C18 = C18 fatty acid (C16-C22 fatty acids conjugated via γGlu/8-amino-3,6-dioxaoctanoic acid spacers); C20 = C20 fatty acid moiety (of 2OEG-γGlu-C20, K**); C20 diacid = O=C(O)CCCCCCCCCCCCCCCCCCC(=O)*; γGlu = O=C(O)[C@H](CCC(=O)[*:2])N[*:1]; αMeR = C[C@](N)(CCCNC(=N)N)C(=O)O; AEEA = NCCOCCOCC(=O)O; Aib = CC(C)(N)C(=O)O

B1: SEQ ID NO. 110 (peptide)
peptide: Y[Aib]QGTFTSDYSK([AEEA-AEEA-γGlu-C20])YLDYMMQ[αMeR]DFVKWLLEGGPSSGAPPPS-NH2
modifications: not fully specified (residue 24); printed as YAibQGT FTSDY SK**YLD YMMQαR DFVB*W LLEGG PSSGA PPPS

Legend:
[1] = rat, in vivo, iv, 100 nmol/kg
Experimental: This study was conducted to evaluate the PK profile of SEQ ID NOs. 77, 102, and 103 and compare the PK profile by the different lipidated structure of peptides in rat plasma by IV administration. SEQ ID NOs. The peptides were delivered at 0.02% PS80 in PBS and dosing volume was 2.5 mL/kg.
The animals were not fasted prior to dosing. 0.2-0.4 mL of whole blood was taken from vein at each time point (0.167, 0.5, 1, 2, 4, 6, 8, 24, and 48 hr after administration) and transferred into the heparin coated tube.
The resulting plasma of 0.1-0.2 mL obtained by centrifugation of the blood samples was transferred into the tube and stored at −70° C. until analysis. The concentrations of peptides in plasma were determined by LC-MS/MS analysis.

[2] = In vivo efficacy in CDA-HFD (NASH) mice, 4 weeks; settings: Example 16; for body weight compared to vehicle-treated control, in words: 20 nmol/kg s.c. Q2D, 4 weeks; for liver enzymes and liver steatosis compared to vehicle-treated control, in words: end of treatment
Experimental: This study was conducted to evaluate the efficacy of SEQ ID NOs. […] SEQ ID NOs. The peptides were delivered at 0.02% PS80 in PBS and dosing volume was 10 mL/kg. Control group was administered by vehicle without peptide.
Body weight changes were monitored Q2D; serum chemistry (end); hepatic TG (end); and histological analysis (end). […]

[3] = In vivo efficacy in mAMLN (obese and NASH) mice, 4 weeks; settings: after 4 weeks
[4] = target: T1, human GLP-1 receptor (GLP-1R), expressed on CHO-K1 cells (human, UniProt P43220 24-463); assay: cell-based or functional assay
[5] = target: T2, human glucose-dependent insulinotropic polypeptide receptor (GIPR), expressed on CHO-K1 cells (human, UniProt P48546 22-466); assay: cell-based or functional assay
T2 sequence (looked up): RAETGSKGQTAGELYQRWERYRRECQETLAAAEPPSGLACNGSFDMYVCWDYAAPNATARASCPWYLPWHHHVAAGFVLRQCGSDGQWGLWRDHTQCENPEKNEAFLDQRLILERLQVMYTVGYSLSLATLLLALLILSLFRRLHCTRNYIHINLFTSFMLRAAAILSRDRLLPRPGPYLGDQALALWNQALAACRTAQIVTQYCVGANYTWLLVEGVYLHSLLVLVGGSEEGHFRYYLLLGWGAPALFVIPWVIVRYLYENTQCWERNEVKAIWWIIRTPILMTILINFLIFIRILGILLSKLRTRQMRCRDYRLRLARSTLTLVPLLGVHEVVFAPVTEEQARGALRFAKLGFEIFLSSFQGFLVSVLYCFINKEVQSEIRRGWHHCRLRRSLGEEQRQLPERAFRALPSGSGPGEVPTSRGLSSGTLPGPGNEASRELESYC

[6] = target: T1, human GLP-1 receptor (GLP-1R), …; assay: cell-based or functional assay; remark: listed apart in the source
[7] = target: human glucagon receptor (GCGR), expressed on CHO-K1 cells (human, UniProt P47871 26-477); assay: cell-based or functional assay
Sequence of human glucagon receptor (GCGR), expressed on CHO-K1 cells (P47871 26-477): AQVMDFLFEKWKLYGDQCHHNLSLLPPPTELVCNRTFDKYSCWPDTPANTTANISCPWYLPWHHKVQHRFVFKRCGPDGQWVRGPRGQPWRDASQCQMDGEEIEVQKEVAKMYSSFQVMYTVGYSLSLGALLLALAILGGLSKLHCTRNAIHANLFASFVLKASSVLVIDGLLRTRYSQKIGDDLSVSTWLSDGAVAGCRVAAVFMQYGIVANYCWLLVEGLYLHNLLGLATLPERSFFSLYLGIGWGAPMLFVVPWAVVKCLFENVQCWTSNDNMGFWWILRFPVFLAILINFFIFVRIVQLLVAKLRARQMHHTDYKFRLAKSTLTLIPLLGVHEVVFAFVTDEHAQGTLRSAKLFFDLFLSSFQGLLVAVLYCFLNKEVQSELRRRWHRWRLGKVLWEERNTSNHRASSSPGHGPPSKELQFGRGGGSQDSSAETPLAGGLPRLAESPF

[8] = target: T2, human glucose-dependent insulinotropic …; assay: cell-based or functional assay; remark: listed apart in the source

| Molecule | Ratio vs. GLP-1R [6] | Relative % to native ligand [6] [%] | Ratio vs. GLP-1R [7] | Relative % to native ligand [7] [%] | Ratio vs. GLP-1R [8] | Relative % to native ligand [8] [%] | other results |
| --- | --- | --- | --- | --- | --- | --- | --- |
| CSCC[C@H](NC(=O)[C@H](Cc1ccc(O)cc1)NC(=O)[C@H](CC(=O)O)NC(=O)[C@H](CC(C)C)NC(=O)[C@H](CC(C)C)NC(=O)[C@H](CCCCNC(=O)COCCOCCNC(=O)CC[C@H](NC(=O)CCCCCCCCCCCCCCCCCCC(=O)O)C(=O)O)NC(=O)[C@H](CO)NC(=O)[C@H](Cc1ccc(O)cc1)NC(=O)[C@H](CC(=O)O)NC(=O)[C@H](CO)NC(=O)[C@@H](NC(=O)[C@H](Cc1ccccc1)NC(=O)[C@@H](NC(=O)CNC(=O)[C@H](CCC(N)=O)NC(=O)C(C)(C)NC(=O)[C@@H](N)Cc1ccc(O)cc1)[C@@H](C)O)[C@@H](C)O)C(=O)N[C@@H](CCSC)C(=O)N[C@@H](CCC(N)=O)C(=O)N[C@@H](CCCNC(=N)N)C(=O)N[C@@H](CC(=O)O)C(=O)N[C@@H](Cc1ccccc1)C(=O)N[C@H](C(=O)N[C@@H](CCC(N)=O)C(=O)N[C@@H](Cc1c[nH]c2ccccc12)C(=O)N[C@@H](CC(C)C)C(=O)N[C@@H](CC(C)C)C(=O)N[C@@H](CCC(=O)O)C(=O)NCC(=O)NCC(=O)N1CCC[C@H]1C(=O)N[C@@H](CO)C(=O)N[C@@H](CO)C(=O)NCC(=O)N[C@@H](C)C(=O)N1CCC[C@H]1C(=O)N1CCC[C@H]1C(=O)N1CCC[C@H]1C(=O)N[C@@H](CO)C(N)=O)C(C)C [compound 102] (H-Y[Aib]QGTFTSDYSK([AEEA-γGlu-C20 diacid])LLDYMMQRDFVQWLLEGGPSSGAPPPS-NH2; N-terminus and C-terminus assumed) |  |  |  |  |  |  | AUCinf/dose [1]: 672.93 ± 32.13 kg·h/L; half-life [1]: 9.77 ± 0.89 h; scores of hepatocytes inflammation and NAS score, in words [2]: statistically reduced; body weight compared to vehicle-treated control, in words [2]: reduce body weight; liver enzymes and liver steatosis compared to vehicle-treated control, in words [2]: reduce liver enzymes and liver steatosis significantly |
| 97 (Y[Aib]QGTFTSDYSK([AEEA-AEEA-γGlu-C18])YLDYMMQRDFVK(N‑Biotinoyl‑N'‑(6-maleimidohexanoyl)hydrazide)WLLEGGPSSGAPPPS-NH2) [compound 97] |  |  |  |  |  |  | NAS score, in words [3]: statistically decreased more than the level of tirzepatide; hepatic steatosis (histological score), in words [3]: significantly reduced; liver weight, visceral fat weight, liver enzymes, and liver steatosis compared to vehicle-treated control, in words [3]: significantly reduced |
| CSCC[C@H](NC(=O)[C@H](Cc1ccc(O)cc1)NC(=O)[C@H](CC(=O)O)NC(=O)[C@H](CC(C)C)NC(=O)[C@H](CC(C)C)NC(=O)[C@H](CCCCNC(=O)COCCOCCNC(=O)COCCOCCNC(=O)CC[C@H](NC(=O)CCCCCCCCCCCCCCCCCCC(=O)O)C(=O)O)NC(=O)[C@H](CO)NC(=O)[C@H](Cc1ccc(O)cc1)NC(=O)[C@H](CC(=O)O)NC(=O)[C@H](CO)NC(=O)[C@@H](NC(=O)[C@H](Cc1ccccc1)NC(=O)[C@@H](NC(=O)CNC(=O)[C@H](CCC(N)=O)NC(=O)C(C)(C)NC(=O)[C@@H](N)Cc1ccc(O)cc1)[C@@H](C)O)[C@@H](C)O)C(=O)N[C@@H](CCSC)C(=O)N[C@@H](CCC(N)=O)C(=O)N[C@@H](CCCNC(=N)N)C(=O)N[C@@H](CC(=O)O)C(=O)N[C@@H](Cc1ccccc1)C(=O)N[C@H](C(=O)N[C@@H](CCC(N)=O)C(=O)N[C@@H](Cc1c[nH]c2ccccc12)C(=O)N[C@@H](CC(C)C)C(=O)N[C@@H](CC(C)C)C(=O)N[C@@H](CCC(=O)O)C(=O)NCC(=O)NCC(=O)N1CCC[C@H]1C(=O)N[C@@H](CO)C(=O)N[C@@H](CO)C(=O)NCC(=O)N[C@@H](C)C(=O)N1CCC[C@H]1C(=O)N1CCC[C@H]1C(=O)N1CCC[C@H]1C(=O)N[C@@H](CO)C(N)=O)C(C)C [compound 103] (H-Y[Aib]QGTFTSDYSK([AEEA-AEEA-γGlu-C20 diacid])LLDYMMQRDFVQWLLEGGPSSGAPPPS-NH2; N-terminus and C-terminus assumed) |  |  |  |  |  |  | AUCinf/dose [1]: 629.51 ± 76.87 kg·h/L; half-life [1]: 9.59 ± 1.32 h; efficacy in the NASH model, in words [2]: superior efficacy compared to SEQ ID NO. 77; hepatic steatosis score compared to CDA-HFD control, in words [2]: significantly reduced; scores of hepatocytes inflammation and NAS score, in words [2]: statistically reduced; body weight compared to vehicle-treated control, in words [2]: reduce body weight; liver enzymes and liver steatosis compared to vehicle-treated control, in words [2]: reduce liver enzymes and liver steatosis significantly |
| H[Aib]QGTFTSDYSKYLDYMMARDFVQWLIEGGPSSGAPPPSC [Peptide No. 5 (with C-terminal cysteine)] |  |  |  |  |  |  | EC50 (nM), cAMP assay [4]: 0.0605 nM; EC50 (nM), cAMP assay [5]: 13.2 nM |
| B1 | 100 | 39 | 29 | 11 | 272 | 105 |  |
| Y[Aib]QGTFTSDYSK([AEEA-AEEA-γGlu-C20])YLDYMMQ[αMeR]DFVQWLLEGGPSSGAPPPS-NH2 [SEQ ID NO. 107] | 100 | 37 | 37 | 14 | 537 | 200 |  |
| Y[Aib]QGTFTSDYSK([AEEA-AEEA-γGlu-C20])LLDYMMQ[αMeR]DFVQWLLEGGPSSGAPPPS-NH2 [SEQ ID NO. 108] | 100 | 46 | 83 | 39 | 971 | 451 |  |
